T1: human CD45 receptor on the surface of human T cells (human, UniProt P08575 26-1306)
T1 construct: whole, on cells; also called cellular CD45; leukocyte common antigen
T1 sequence (looked up): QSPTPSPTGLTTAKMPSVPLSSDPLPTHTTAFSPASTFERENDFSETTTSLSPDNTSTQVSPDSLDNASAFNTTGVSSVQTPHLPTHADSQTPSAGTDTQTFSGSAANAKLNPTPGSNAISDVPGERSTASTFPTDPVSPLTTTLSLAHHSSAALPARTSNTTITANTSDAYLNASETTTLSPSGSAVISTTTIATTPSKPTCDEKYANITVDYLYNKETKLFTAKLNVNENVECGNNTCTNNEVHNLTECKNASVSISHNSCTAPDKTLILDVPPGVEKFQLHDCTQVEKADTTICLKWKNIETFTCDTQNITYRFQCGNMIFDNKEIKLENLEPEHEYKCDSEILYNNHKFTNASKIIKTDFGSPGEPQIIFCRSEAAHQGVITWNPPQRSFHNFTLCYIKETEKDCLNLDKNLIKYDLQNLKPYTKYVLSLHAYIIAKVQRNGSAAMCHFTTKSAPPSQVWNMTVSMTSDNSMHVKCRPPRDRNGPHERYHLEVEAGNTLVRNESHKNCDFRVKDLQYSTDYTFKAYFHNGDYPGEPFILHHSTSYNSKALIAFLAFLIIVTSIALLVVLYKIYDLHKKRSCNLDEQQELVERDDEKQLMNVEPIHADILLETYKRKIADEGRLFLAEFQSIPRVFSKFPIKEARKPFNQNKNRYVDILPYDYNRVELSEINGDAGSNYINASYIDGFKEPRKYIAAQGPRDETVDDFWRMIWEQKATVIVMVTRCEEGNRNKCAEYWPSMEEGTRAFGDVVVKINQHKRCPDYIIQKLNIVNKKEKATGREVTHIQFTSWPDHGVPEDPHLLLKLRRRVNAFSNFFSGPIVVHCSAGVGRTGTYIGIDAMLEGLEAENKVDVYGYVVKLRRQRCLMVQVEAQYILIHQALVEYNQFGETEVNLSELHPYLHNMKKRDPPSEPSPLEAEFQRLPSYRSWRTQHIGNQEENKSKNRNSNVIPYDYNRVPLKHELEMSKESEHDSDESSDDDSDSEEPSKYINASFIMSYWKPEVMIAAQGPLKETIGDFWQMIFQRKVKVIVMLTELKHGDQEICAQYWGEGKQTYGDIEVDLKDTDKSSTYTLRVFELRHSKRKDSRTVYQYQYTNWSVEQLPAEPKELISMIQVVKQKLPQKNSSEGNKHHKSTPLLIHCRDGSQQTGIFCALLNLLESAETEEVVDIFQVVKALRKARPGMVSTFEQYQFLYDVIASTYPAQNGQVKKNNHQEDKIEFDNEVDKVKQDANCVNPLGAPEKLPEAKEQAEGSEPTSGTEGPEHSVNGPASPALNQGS

B1: ch9.4 chimeric IgG anti-CD45 antibody (antibody, V domains shown)
VH: QVQLQQLGAELARPGASVKMSCKASGYTFTSYSIQWVKQRPGQGLEWIGYINPSSGYIKYNQHFRDRATLTADRSSSTAYMQLSSLTSEDSAVYYCARGNSGSFDYWGQGTTLTVSS
VL: DIVMTQAAPSVPVTPGESLSISCRSSKSLLHSSGITYLYWFLQRPGQSPQLLIYRMSNLASGVPDRFSGSGSGTAFTLRISRVEAEDVGVYYCMQHLEYPFTFGGGTKLEIK
notes: Chimeric IgG: mouse variable domains, human constant kappa domain and human IgG4 with S228P
B2: chBC8 chimeric IgG anti-CD45 antibody (IgG4-S228P) (antibody, V domains shown)
VH: QVQLVESGGGLVQPGGSLKLSCAASGFDFSRYWMSWVRQAPGKGLEWIGEINPTSSTINFTPSLKDKVFISRDNAKNTLYLQMSKVRSEDTALYYCARGNYYRYGDAMDYWGQGTSVTVSS
VL: DIVLTQSPASLAVSLGQRATISCRASKSVSTSGYSYLHWYQQKPGQPPKLLIYLASNLESGVPARFSGSGSGTDFTLNIHPVEEEDAATYYCQHSRELPFTFGSGTKLEIKR
notes: also called chBC8 IgG; chimeric BC8
B3: hBC8(23) humanized BC8 anti-CD45 antibody (IgG form) (antibody, V domains shown)
VH: EVQLVESGGGLVQPGGSLRLSCAASGFDFSRYWMSWVRQAPGKGLEWIGEINPTSSTINFADSVKGRFTISRDNAKNSLYLQMNSVRDEDTAVYYCARGNYYRYGDAMDYWGQGTLVTVSS
VL: EIVLTQSPATLSLSLGERATISCRASKSVSTSGYSYLHWYQQKPGQAPKLLIYLASNRATGVPARFSGSGPGTDFTLTISSLEPEDFATYYCQHSRELPFTFGQGTKLEIK
notes: Tested as an antibody detected with anti-human IgG-Fc; its constant regions are not spelled out for the humanized antibody
B4: chOKT8Fab (anti-human CD8 clone OKT8 as Fab fragment) (Fab, V domains shown)
VH: QVQLQQSGAELVKPGASVKLSCTASGFNIKDTYIHFVRQRPEQGLEWIGRIDPANDNTLYASKFQGKATITADTSSNTAYMHLSSLTSGDTAVYYCGRGYGYYVFDHWGQGTTLTVSS
VL: DVQINQSPSFLAASPGETITINCRTSRSISQYLAWYQEKPGKTNKLLIYSGSTLQSGIPSRFSGSGSGTDFTLTISGLEPEDFAMYYCQQHNENPLTFGAGTKLELKR
B5: ch4B2 chimeric IgG anti-CD45 antibody (antibody, V domains shown)
VH: QVQLQQSGAELARPGASVKMSCKASGYTFTSYTMQWVKQRPGQGLEWIGYINPSSGYIKYNQKFKDKVTLTADKSSTTAYMQLSRLTSEDSAVYYCARRGSYFFDFWGQGTSVTVSS
VL: DIVITQDELSNPVTSGESVSISCRSSKSLLYKDGKTYLNWFLQRPGQSPQLLIYLMSTRASGVSDRFSGSGSGTDFTLEISRVKAEDVGVYYCQQLVEYPFTFGGGTKLEVK
notes: as for B1
B6: human CD8 on the surface of human CD8 T cells (receptor)
chain 1: not shown
chain 2: LQQTPAYIKVQTNKMVMLSCEAKISLSNMRIYWLRQRQAPSSDSHHEFLALWDSAKGTIHGEEVEQEKIAVFRDASRFILNLTSVKPEDSGIYFCMIVGSPELTFGKGTQLSVVDFLPTTAQPTKKSTLKKRVCRLPRPETQKGPLCSPITLGLLVAGVLVLLVSLGVAIHLCCRRRRARLRFMKQFYK
notes: whole, on cells
B7: h9.4Fab-scIL-12p70 (other)
heavy: EVQLVQSGAEVKKPGASVKVSCKASGYTFTSYSIQWVRQAPGQRLEWIGYINPSSGYIKYNQHFRGRATLTADRSASTAYMELSSLRSEDTAVYYCARGNSGSFDYWGQGTLVTVSSASTKGPSVFPLAPSSKSTSGGTAALGCLVKDYFPEPVTVSWNSGALTSGVHTFPAVLQSSGLYSLSSVVTVPSSSLGTQTYICNVNHKPSNTKVDKKVEPKSC
light: DIVMTQSPLSLPVTPGEPASISCRSSQSLLHSSGITYLYWFLQKPGQSPQLLIYRMSNLASGVPDRFSGSGSGTDFTLKISRVEAEDVGVYYCMQHLEYPFTFGQGTKLEIKRTVAAPSVFIFPPSDEQLKSGTASVVCLLNNFYPREAKVQWKVDNALQSGNSQESVTEQDSKDSTYSLSSTLTLSKADYEKHKVYACEVTHQGLSSPVTKSFNRGECGGGGSGGGGSGGGGSIWELKKDVYVVELDWYPDAPGEMVVLTCDTPEEDGITWTLDQSSEVLGSGKTLTIQVKEFGDAGQYTCHKGGEVLSHSLLLLHKKEDGIWSTDILKDQKEPKNKTFLRCEAKNYSGRFTCWWLTTISTDLTFSVKSSRGSSDPQGVTCGAATLSAERVRGDNKEYEYSVECQEDSACPAAEESLPIEVMVDAVHKLKYENYTSSFFIRDIIKPDPPKNLQLKPLKNSRQVEVSWEYPDTWSTPHSYFSLTFCVQVQGKSKREKKDRVFTDKTSATVICRKNASISVRAQDRYYSSSWSEWASVPCSGGGSGGGSGGGSGGGSRNLPVATPDPGMFPCLHHSQNLLRAVSNMLQKARQTLEFYPCTSEEIDHEDITKDKTSTVEACLPLELTKNESCLNSRETSFITNGSCLASRKTSFMMALCLSSIYEDLKMYQVEFKTMNAKLLMDPKRQIFLDQNMLAVIDELMQALNFNSETVPQKSSLEEPDFYKTKIKLCILLHAFRIRAVTIDRVMSYLNAS
notes: Anti-human CD45 Fab fused to single-chain human IL-12p70; also called anti-CD45-IL12-TF; IL12-TF

Test [1] deals with T1, human CD45 receptor on the surface of …. In words: apparent KD (KD,app); flow cytometry titration of IgG on activated primary human CD8 T cells, 4-parameter fit. The source says:
For comparison with previous results we evaluated these antibodies alongside chBC8, hBC8(23), and a non-binding variant hBC8-null. The humanized BC8 antibody consists of variable domains containing CDR regions grafted from BC8, and the hBC8-null variant contains an SGGGS substitution in the heavy-chain CDR3, which ablates binding to CD45 (FIG. 10A). […] We use the term apparent dissociation constant (K_{D,app}) to distinguish from a true equilibrium dissociation constant: the bivalent nature of the IgG antibody introduces an avidity effect that complicates the calculation of a true equilibrium dissociation constant for these type of assays. Nevertheless, the K_{D,app} is a useful metric for scoring relative affinities of the antibodies to the cellular receptor in its native context.
Cell binding assay. Primary human CD8 T-cells were activated with CD3/CD28 beads and 10 ng/mL IL-2 as described in Example 1. Following activation and an overnight rest in full RPMI media (see Example 1 methods) the T-cells were incubated with seven serial five-fold dilutions of antibodies spanning 500 nM to 6.4 μM, or with media only control at 4° C. for 1 hr. Cells were washed with MACS buffer (PBS, 2% FBS, 1 mM EDTA) three times, and antibody binding was detected using a PE-conjugated anti-human IgG-Fc antibody (BioLegend, cat. no. HP6017) for 20 min. at 4° C. Cells were washed two times with MACS buffer, and the resuspended in MACS buffer with live-dead stain (7-AAD). Antibody binding was quantified using the median fluorescence intensity (MFI) of the live cell population (via 7-AAD exclusion) within the PE signal. Curves were generated by plotting mean fluorescent units against antibody concentration, and apparent dissociation constants (K_{D,app}) were determined by non-linear regression using a four-parameter logistic equation using GraphPad Prism (GraphPad Software, Inc.).
For orientation: In flow cytometry, cells or beads pass a laser one at a time.

Test [2] has as its target B6. Put plainly: flow cytometry titration on total CD3 human T cells (FIG. 17D).
The target of test [3] is T2, chOKT8-IL15/sushi Fab (human, UniProt Q13261 31-95).
T2 construct: Anti-human CD8 Fab IFM; also called chOKT8Fab-IL15/sushi; chOKT8Fab-Il15/sushi
T2 sequence (Q13261 31-95): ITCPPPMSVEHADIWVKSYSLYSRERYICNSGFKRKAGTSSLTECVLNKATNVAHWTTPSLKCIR
The description is as above.

Test [4] addresses T1, human CD45 receptor on the surface of …. Put plainly: pulse incubation of human CD3 T cells, anti-human IgG staining by flow cytometry (FIG. 23). The method, then:
We evaluated the ability of IL12-TFs to support the loading of IL-12 onto T cells. Briefly, human total CD3 T cells were activated with CD3/CD28 Dynabeads for three days. Beads were removed and cells were incubated with IL-2 for 1 day prior to pulse incubation with h9.4Fab-scIL-12p70 diluted in full medium (RPMI 1640 with 10% FBS). Cells were incubated in biological duplicate with full media (Mock condition) or h9.4Fab-scIL-12p70 for 1 hr at 37° C. and then washed three times will full media (RPMI 1640 with 10% FBS) to remove unbound IL12-TF. Cells were then plated in full medium at a cell density of approximately 200,000 cells/mL and incubated at 37° C., 5% CO2. Surface tethered IL-12 was detected using flow cytometry by immunostaining with a polyclonal anti-human IgG antibody. Cells were counted using CountBright Absolute flow cytometry counting beads. In each case cells were analyzed on a FACSCelesta using Diva Software; data was analyzed using Cytobank.

Turning to B1, the Kd in test [1] worked out at 0.84 nM.
As for B2, the Kd in test [1] was 6.68 nM.
The same measure, in the same setting: the result for B3 reads 7.8 nM.
For B4, the binding result in test [2] is “binds”.
For B5, in test [1], the Kd worked out at 0.44 nM.
Regarding B6, the binding result in test [3] is recorded as “binds”.
As for B7, the binding result in test [4] is listed as “binds”.
